# According to paper PMC5965250:
# Target: HyHEL-10 antibody
# Assay: SPR; binding affinity of the HEL variants to HyHEL-10; who was immobilised is not shown (Fig. S20)
substance,measurement,value
HEL-K96Nvoc (10) (from UniProt P00698 19-147) (natural protein),fold weaker binding affinity than native HEL,6000 fold
